Like-named read-outs stand apart in the source and are kept apart here.
Legend:
maize EPSPS = assay: In vitro characterization of EPSPS mutants (EnzChek phosphate assay, Michaelis-Menten kinetics, glyphosate Ki); assay type: biochemical, Zea mays; details: for Km: apparent Km, mean±S.E.; for Ki: inhibitory constant for glyphosate, no unit in table (around 800 μM)
Protocol: Activity was determined by quantifying release of Pi, coupled to a reaction with MESG, catalyzed by purine-nucleoside phosphorylase using the EnzChek Phosphate Assay Kit from Invitrogen, first published in 1992. 95 μL of master mix was added to each well and 5 μL of the varied substrate dilutions were multi-channeled into the plate to start the reaction simultaneously for all conditions. Absorbance measurements at 360 nm were taken every 10 seconds for 3 minutes to capture the initial reaction rate of each condition. Varying levels of substrate were added to generate the resulting reaction rate curves. Each condition was performed in triplicate. Ki was determined as previously described (Lu, et al., Protein Engineering, Design and Selection 30:395-399 (2017)). Data was fit to the Michaelis-Menten kinetics equation and were also validated through GraphPad Prism's built-in function for each variant.
For protein expression of EPSPS and its variants, E. coli BL21 (DE3) was used as the expression host. Electrocompetent cells were transformed with the corresponding constructed plasmids, pET28a (+) with selected EPSPS variants (wild-type, TIPS, TIPS P126S, TIPS K296R, TIPS P126S/K296R). A single colony of an E. coli BL21 (DE3) strain harboring one of the constructed plasmids was inoculated into 2 mL of Luria Bertani broth (LB) medium with 50 μg/mL kanamycin and grown overnight at 37° C./225 rpm. The overnight-grown culture (using 100 μl) was scaled up with 2000-fold dilution in a 500-mL triple baffled shake flask and grown to a cell density of 0.8 (optical density [OD600]) at 37° C./225 rpm. Protein expression was induced by adding 0.2 mM of isopropyl β-D-1-thiogalactopyranoside (IPTG) and cells were cultured for 24 hours at 20° C./225 rpm. The induced cell culture was harvested by centrifugation at 4,000 g and 4° C. for 20 mins. Cell pellets were then resuspended in 25 mL of Dulbecco's Phosphate Buffered Saline (DPBS) (Thermo Fisher Scientific, Waltham, MA) pH 7.0 buffer containing 10 mM imidazole, 1 g/L of lysozyme and 5 μl of Pierce™ Universal Nuclease (Thermo Fisher Scientific, Waltham, MA), followed by mixing on a rocker for 30 mins at 4° C. Subsequently, cells were lysed by sonication and the resulting cell lysate was centrifuged at 14,000 g and 4° C. for 20 minutes to obtain the supernatant that contains soluble proteins. Target proteins from the supernatant was purified by HisPur™ Ni-NTA Resin (Thermo Fisher Scientific, Waltham, MA) according to the manufacturer's instruction.
The eluate was dialyzed with 3C protease added to the dialysis cassette, into the appropriate buffer followed by size-exclusion fast protein liquid chromatography. All EPSP synthase variants were stored in 20 mM Tris (pH 7.5), 100 mM NaCl and 10 mM β-mercaptoethanol. The protein concentration was then determined by using the Coomassie Plus Bradford Assay kit (Thermo Fisher Scientific) and the Infinite M200 PRO microplate reader (Tecan, Männedorf, Switzerland) to measure the absorbance of assay mixtures. The presence and purity of the purified proteins were assessed by sodium dodecyl sulfate-polyacrylamide gel electrophoresis.
Enzymatic activity, including inhibitory constant Ki, for EPSPS and TIPS closely corroborate values determined by previous reports. Mutations P126S and K296R have beneficial effects on their own to both Km and kcat and are additive when combined, similar to the observations of the in vivo growth characterization. Furthermore, the high Ki is maintained for each of the variants, showing similar or slightly higher values of around 800 μM compared to the starting point, TIPS. These findings confirm the phenotype endowed by the dual-trait selection pressure employed during the directed evolution campaigns. Kinetic parameters of maize EPSPS with mutations discovered through directed evolution. In Table 4, initial velocity data were measured in triplicate and fit to the Michaelis-Menten equation. […]

transgenic maize plants = assay: Maize transformation with glyphosate selection, plantlet recovery and quality checks; assay type: in vivo, Zea mays; details: for Number of young plants passing quality control checks: in vivo; for Number of plantlets generated: under glyphosate selection, same amount of starting material
Excerpt: Maize was used as a model system to test the functionality of the EPSPS variants because of detailed previous characterization of glyphosate tolerance in maize and a suitable transgenic plant generation protocol that relies on glyphosate. Plant transformation vectors were generated in which the native maize EPSPS sequence was used, which includes the native gene promoter elements, the native introns and exons and the native 3′ untranslated region and introduced mutations that corresponded to each of the selected amino acid changes. The native sequence was used to mimic as closely as possible how the selected EPSPS variants would perform if the variants were introduced directly in the genome without the help of strong expression elements. The following variants were selected for testing in a transgenic maize system: TIPS (as a control); TIPS-P126S-M217L-K296R; TIPS-P126S-K296R; T102I-P126S-K296R (where only the T102I change is present); P106S-P126S-K296R (where only the P106S change is present); and P126S-K296R (where neither of the TIPS changes are present).
Transgenic maize plants that expressed each of the six EPSPS variants were generated to determine if the variants conferred glyphosate tolerance to plants. The full DNA sequence encoding TIPS EPSPS (SEQ ID NO:1) was cloned from maize genomic DNA. In this sequence, the promoter and 5′ UTR are nucleotides 1:2556; the chloroplast transit peptide sequence is nucleotides 2557:2742; EXON 1 is nucleotides 2743:2856; INTRON 1 is nucleotides 2857:3384; EXON 2 is nucleotides 3385:3626; INTRON 2 is nucleotides 3627:3725; EXON 3 is nucleotides 3726:3879; INTRON 3 is nucleotides 3880:4152; EXON 4 is nucleotides 4153:4367; INTRON 4 is nucleotides 4368:4877; EXON 5 is nucleotides 4878:4995; INTRON 5 is nucleotides 4996:5155; EXON 6 is nucleotides 5156:5366; INTRON 6 is nucleotides 5367:5446; EXON 7 is nucleotides 5447:5508; INTRON 7 is nucleotides 5509:5617; EXON 8 is nucleotides 5618:5836; and the 3′ UTR is nucleotides 5837:6368. Mutations were then introduced into the EPSPS coding sequence in order to produce each of the six EPSPS variants to be tested. These mutated full genomic DNA sequences were then each cloned as a single expression cassette into plant transformation vectors.
Agrobacterium tumefaciens-mediated plant transformation was performed using methods known in the art. Glyphosate selection was used to select for transgenic events containing the transgene of interest and further screened for only those EPSPS variants that provided effective glyphosate tolerance in a plant cell. While all six EPSPS variants began the transformation process with the same amount of starting maize cellular material, there were differences in the number of small plantlets recovered that were capable of being transplanted to greenhouse soil media (Table 4). Transgenic events were further analyzed to determine transgene copy number. Healthy events with single copy of the transgene of interest were grown in the greenhouse soil media. Only three of the six EPSPS variants had more than one plant surviving. Up to twenty-five of these developing R0 plants were transplanted to larger pots and allowed to grow to maturity for seed collection in the greenhouse.

[1] = PEP at saturation (roughly 10 times its Km), read-out: Km (S3P)
[2] = S3P at saturation (roughly 10 times its Km), read-out: Km (PEP)

Row | Ki (maize EPSPS) | Molecule | Km (maize EPSPS; [1]) | Km (maize EPSPS; [2]) | Number of young plants passing quality control checks (transgenic maize plants) | Number of plantlets generated (transgenic maize plants)
1 | 859 µM | TIPS-P126S: maize EPSPS variant, SEQ ID NO:15 (protein, Zea mays) AGAEEIVLQPIKEISGTVKLPGSKSLSNRILLLAALSEGTTVVDNLLNSEDVHYMLGALRTLGLSVEADKAAKRAVVVGCGGKFPVEDSKEEVQLFLGNAGIAMRSLTAAVTAAGGNATYVLDGVSRMRERPIGDLVVGLKQLGADVDCFLGTDCPPVRVNGIGGLPGGKVKLSGSISSQYLSALLMAAPLALGDVEIEIIDKLISIPYVEMTLRLMERFGVKAEHSDSWDRFYIKGGQKYKSPKNAYVEGDASSASYFLAGAAITGGTVTVEGCGTTSLQGDVKFAEVLEMMGAKVTWTETSVTVTGPPREPFGRKHLKAIDVNMNKMPDVAMTLAVVALFADGPTAIRDVASWRVKETERMVAIRTELTKLGASVEEGPDYCIITPPEKLNVTAIDTYDDHRMAMAFSLAACAEVPVAIRDPGCTRKTFPDYFDVLSTFVKN | 28.2 µM | 13.7 µM | – | –
2 | – | T102I-P126S-K296R: maize EPSPS variant, SEQ ID NO:12 (protein, Zea mays) AGAEEIVLQPIKEISGTVKLPGSKSLSNRILLLAALSEGTTVVDNLLNSEDVHYMLGALRTLGLSVEADKAAKRAVVVGCGGKFPVEDSKEEVQLFLGNAGIAMRPLTAAVTAAGGNATYVLDGVSRMRERPIGDLVVGLKQLGADVDCFLGTDCPPVRVNGIGGLPGGKVKLSGSISSQYLSALLMAAPLALGDVEIEIIDKLISIPYVEMTLRLMERFGVKAEHSDSWDRFYIKGGQKYKSPKNAYVEGDASSASYFLAGAAITGGTVTVEGCGTTSLQGDVKFAEVLEMMGARVTWTETSVTVTGPPREPFGRKHLKAIDVNMNKMPDVAMTLAVVALFADGPTAIRDVASWRVKETERMVAIRTELTKLGASVEEGPDYCIITPPEKLNVTAIDTYDDHRMAMAFSLAACAEVPVAIRDPGCTRKTFPDYFDVLSTFVKN | – | – | 1 | 69
3 | 841 µM | TIPS-K296R: maize EPSPS variant, SEQ ID NO:16 (protein, Zea mays) AGAEEIVLQPIKEISGTVKLPGSKSLSNRILLLAALSEGTTVVDNLLNSEDVHYMLGALRTLGLSVEADKAAKRAVVVGCGGKFPVEDSKEEVQLFLGNAGIAMRSLTAAVTAAGGNATYVLDGVPRMRERPIGDLVVGLKQLGADVDCFLGTDCPPVRVNGIGGLPGGKVKLSGSISSQYLSALLMAAPLALGDVEIEIIDKLISIPYVEMTLRLMERFGVKAEHSDSWDRFYIKGGQKYKSPKNAYVEGDASSASYFLAGAAITGGTVTVEGCGTTSLQGDVKFAEVLEMMGARVTWTETSVTVTGPPREPFGRKHLKAIDVNMNKMPDVAMTLAVVALFADGPTAIRDVASWRVKETERMVAIRTELTKLGASVEEGPDYCIITPPEKLNVTAIDTYDDHRMAMAFSLAACAEVPVAIRDPGCTRKTFPDYFDVLSTFVKN | 16.5 µM | 24 µM | – | –
4 | – | P106S-P126S-K296R: maize EPSPS variant, SEQ ID NO:13 (protein, Zea mays) AGAEEIVLQPIKEISGTVKLPGSKSLSNRILLLAALSEGTTVVDNLLNSEDVHYMLGALRTLGLSVEADKAAKRAVVVGCGGKFPVEDSKEEVQLFLGNAGTAMRSLTAAVTAAGGNATYVLDGVSRMRERPIGDLVVGLKQLGADVDCFLGTDCPPVRVNGIGGLPGGKVKLSGSISSQYLSALLMAAPLALGDVEIEIIDKLISIPYVEMTLRLMERFGVKAEHSDSWDRFYIKGGQKYKSPKNAYVEGDASSASYFLAGAAITGGTVTVEGCGTTSLQGDVKFAEVLEMMGARVTWTETSVTVTGPPREPFGRKHLKAIDVNMNKMPDVAMTLAVVALFADGPTAIRDVASWRVKETERMVAIRTELTKLGASVEEGPDYCIITPPEKLNVTAIDTYDDHRMAMAFSLAACAEVPVAIRDPGCTRKTFPDYFDVLSTFVKN | – | – | 0 | 39
5 | – | P126S-K296R: maize EPSPS variant, SEQ ID NO:14 (protein, Zea mays) AGAEEIVLQPIKEISGTVKLPGSKSLSNRILLLAALSEGTTVVDNLLNSEDVHYMLGALRTLGLSVEADKAAKRAVVVGCGGKFPVEDSKEEVQLFLGNAGTAMRPLTAAVTAAGGNATYVLDGVSRMRERPIGDLVVGLKQLGADVDCFLGTDCPPVRVNGIGGLPGGKVKLSGSISSQYLSALLMAAPLALGDVEIEIIDKLISIPYVEMTLRLMERFGVKAEHSDSWDRFYIKGGQKYKSPKNAYVEGDASSASYFLAGAAITGGTVTVEGCGTTSLQGDVKFAEVLEMMGARVTWTETSVTVTGPPREPFGRKHLKAIDVNMNKMPDVAMTLAVVALFADGPTAIRDVASWRVKETERMVAIRTELTKLGASVEEGPDYCIITPPEKLNVTAIDTYDDHRMAMAFSLAACAEVPVAIRDPGCTRKTFPDYFDVLSTFVKN | – | – | 1 | 11

From patent US20260275304A1, “METHODS AND COMPOSITIONS FOR GLYPHOSATE TOLERANCE IN PLANTS” (Monsanto Technology LLC, priority 2023, published 2026)
